{"source": "the DeepSol protein solubility set", "data": [{"experiment": "soluble on expression in E. coli; label from the status in PepcDB or PDB records", "values": [{"sequence": "MLEGVVRRREGPDYTVRIKPVARSRILTLPDAPERSSPVIVGIDPGITTGLAVLDINGRLLHAESSKSLDRSRVTEIVYGLGRPVIVAVDVADPPETAKKLAAQWGAMLYTPPADLTTSEKWGLARRVLGSSVEDTHVRDLEHHHHHH", "soluble on expression in E. coli": "not soluble"}, {"sequence": "MLELKPPLVLLSGPAGFGEYLKLMDHRYVGGVLLKTVTLHPKEGNPTPRMADSDFYVINRIGLENPGIHAFVENIPELPVPMIASLGGDSFEEYLEVARVFKKVADRFYAVEFNFSCPNVKEGGLSIVKNAEEWKKLLNTLRKELPDSFLIAKVGVEGIFVEDAAEFVMKTGWDGITLVNTVRGLHFEKDTMILGGLSGPVLKPIALRAVYEVKKRFPELFVIASGGVYSVKDAEEFLKVGADVIGVGSALFKDPGVVEEIGKYLLEVKR", "soluble on expression in E. coli": "soluble"}, {"sequence": "MLEMLEYNHYQVQTHLENPTKYHIQQAQRQQVKQYLSTTLANKHANQVLSLPCPNQPGDHVMPPVPGSSAPNSPMAMLTLNSNCEKEGFYKFEEQNRAESECPGMNTHSRASCMQMDDVIDDIISLESSYNEEILGLMDPALQMANTLPVSGNLIDLYGNQGLPPPGLTISNSCPANLPNIKRELTESEARALAKERQKKDNHNLIERRRRFNINDRIKELGTLIPKSNDPDMRWNKGTILKASVDYIRKLQREQQRAKELENRQKKLEHANRHLLLRIQELEMQARAHGLSLIPSTGLCSPDLVNRIIKQEPVLENCSQDLLQHHADLTCTTTLDLTDGTITFNNNLGTGTEANQAYSVPTKMGSKLEDILMDDTLSPVGVTDPLLSSVSPGASKTSSRRSSMSMEETEHTC", "soluble on expression in E. coli": "soluble"}, {"sequence": "MLEQMGIAAKQASYKLAQLSSREKNRVLEKIADELEAQSEIILNANAQDVADARANGLSEAMLDRLALTPARLKGIADDVRQVCNLADPVGQVIDGGVLDSGLRLERRRVPLGVIGVIYEARPNVTVDVASLCLKTGNAVILRGGKETCRTNAATVAVIQDALKSCGLPAGAVQAIDNPDRALVSEMLRMDKYIDMLIPRGGAGLHKLCREQSTIPVITGGIGVCHIYVDESVEIAEALKVIVNAKTQRPSTCNTVETLLVNKNIADSFLPALSKQMAESGVTLHADAAALAQLQAGPAKVVAVKAEEYDDEFLSLDLNVKIVSDLDDAIAHIREHGTQHSDAILTRDMRNAQRFVNEVDSSAVYVNASTRFTDGGQFGLGAEVAVSTQKLHARGPMGLEALTTYKWIGIGDYTIRA", "soluble on expression in E. coli": "soluble"}, {"sequence": "MLFDLDGTVWEGGRALPFAVDSINQVNLPLMYVTNNASRGPEVVASLLSDMGIFTQPEQVLTSAQAAIDLALKEVPVGSNVLVLGTDSFKSLAAEAGYMVVNSADMEPVAVFHGHNPATSWTELSEAALAIRCGAKYYASNLDTTLPSERGLCVGNGSMVAAVVSATGVQPVSAGKPEAAMFHVAAEKLASERPLAVGDRLNTDIAGGVAAGFDTLHLLTGVSQHWALVHAIESERPTLIAEDLRALSSDRSVLMPQLQGDFNAYLQGTEIVLNGGSTASTSTEALRSVLSVAWQSAEFGGTVKPVSEHAIRCMSEWR", "soluble on expression in E. coli": "not soluble"}, {"sequence": "MLFELLYTSIAPAGLSDTELLSILEKARAKNQALDITGMLVYHNREIMQILEGEELKVRGLFQTIFQDERHTSVEVFYQGNIDHRAFSEWSMAFKLLDENTVKKMLIGYENFNPAKSPISMIASSPNRGKKTFLKLRDSL", "soluble on expression in E. coli": "soluble"}, {"sequence": "MLFYLISAIIFTTVAFAAPTPAPTLTVAEEMEAIFQNLTEEAQNDYFQILFDHTLTLAELDQKWDEWAEKHGIADKWAVYTSKWQARKEKFNETTVSVIERLPSTYKMLSEITANRNQTLSQVETALEELKEKFNLEVQLILILSKTLILNEEIVLGGGPIEVGNEVTGNSFRRMRDFKNKNRDVKSLLIPGPL", "soluble on expression in E. coli": "not soluble"}, {"sequence": "MLGASRWRRTSAFSGIWRIPMSSNNSSRKVVTVDEQAFERTEDAGVDEDGFKVVDDKPEFRATVQQEKQAKVDSNHPDGIVQDFSHLPLAQEEKIRAREAELDHISAQAELGTQDGRAKRTRKVVTERRQRKRAERTPDRTDPRERLSRMELAKVNQEADRMAQRLRTGHSRAAVSRALAKRVAKGQDITKAVFDTMDALKAAPGAICPIEDVPDVQTDEVSIEGEVVQLWDASSRKIAQVGLVADDTGKIKFTSWRKSEPAFVQEGDTVRMRAVKKNWYEGRCSLAVTYDSMIVFPERDRRWWEELEHHHHHH", "soluble on expression in E. coli": "not soluble"}]}]}
